Reference: the supplement of paper PMC5998384

How the values were obtained:
[1] = test system: HeLa Kyoto; assay: solubility change mitosis vs G1/S (difference of NP-40 vs SDS log2 ratios) (log2 ratio difference); higher = more soluble in mitosis
[2] = test system: HeLa Kyoto; assay: melting temperature (median over replicates), in situ; higher = more thermally stable
[3] = test system: HeLa Kyoto; assay: solubility in G1/S (NP-40 vs SDS abundance) (log2 ratio); higher = more soluble; settings: cell cycle stage: G1/S
[4] = test system: HeLa Kyoto; assay: thermal stability score vs G1/S (z-score of summed log2 fold changes over temperatures); higher = more thermally stable than in G1/S
[5] = cell cycle stage: early G1 (4.5 h after nocodazole release)
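Wherever melting temperature (median over replicates), in situ is given: HeLa Kyoto cells synchronized by double thymidine or nocodazole block, proteins quantified by TMT10plex mass spectrometry, three independent biological replicates.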
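Wherever solubility change mitosis vs G1/S (difference of NP-40 vs SDS log2 ratios) is given: synchronized HeLa Kyoto cells (double thymidine block for G1/S, nocodazole release for mitosis), protein amounts in NP-40 versus SDS lysates quantified by mass spectrometry, three biological replicates.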
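Wherever solubility in G1/S (NP-40 vs SDS abundance) is given: HeLa Kyoto cells arrested at G1/S by double thymidine block, proteins quantified by TMT10plex mass spectrometry in mild NP-40 versus SDS extracts, three biological replicates.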
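Wherever thermal stability score vs G1/S (z-score of summed log2 fold changes over temperatures) is given: synchronized HeLa Kyoto cells, proteins quantified by TMT10plex mass spectrometry, three biological replicates, mitosis taken 0.5 h after nocodazole release, G1/S directly after double thymidine block.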

MSI2, sequence (chain, as listed by the source): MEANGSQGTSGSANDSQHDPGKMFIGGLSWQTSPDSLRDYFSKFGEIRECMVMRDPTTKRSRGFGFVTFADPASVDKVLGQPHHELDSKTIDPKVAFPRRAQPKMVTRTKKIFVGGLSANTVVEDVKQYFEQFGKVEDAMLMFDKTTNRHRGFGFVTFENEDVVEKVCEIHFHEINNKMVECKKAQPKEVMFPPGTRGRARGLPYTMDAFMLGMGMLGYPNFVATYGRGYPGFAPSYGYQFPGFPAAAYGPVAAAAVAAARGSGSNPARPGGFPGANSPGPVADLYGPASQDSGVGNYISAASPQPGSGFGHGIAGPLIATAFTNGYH
LMO7, sequence (chain, as listed by the source): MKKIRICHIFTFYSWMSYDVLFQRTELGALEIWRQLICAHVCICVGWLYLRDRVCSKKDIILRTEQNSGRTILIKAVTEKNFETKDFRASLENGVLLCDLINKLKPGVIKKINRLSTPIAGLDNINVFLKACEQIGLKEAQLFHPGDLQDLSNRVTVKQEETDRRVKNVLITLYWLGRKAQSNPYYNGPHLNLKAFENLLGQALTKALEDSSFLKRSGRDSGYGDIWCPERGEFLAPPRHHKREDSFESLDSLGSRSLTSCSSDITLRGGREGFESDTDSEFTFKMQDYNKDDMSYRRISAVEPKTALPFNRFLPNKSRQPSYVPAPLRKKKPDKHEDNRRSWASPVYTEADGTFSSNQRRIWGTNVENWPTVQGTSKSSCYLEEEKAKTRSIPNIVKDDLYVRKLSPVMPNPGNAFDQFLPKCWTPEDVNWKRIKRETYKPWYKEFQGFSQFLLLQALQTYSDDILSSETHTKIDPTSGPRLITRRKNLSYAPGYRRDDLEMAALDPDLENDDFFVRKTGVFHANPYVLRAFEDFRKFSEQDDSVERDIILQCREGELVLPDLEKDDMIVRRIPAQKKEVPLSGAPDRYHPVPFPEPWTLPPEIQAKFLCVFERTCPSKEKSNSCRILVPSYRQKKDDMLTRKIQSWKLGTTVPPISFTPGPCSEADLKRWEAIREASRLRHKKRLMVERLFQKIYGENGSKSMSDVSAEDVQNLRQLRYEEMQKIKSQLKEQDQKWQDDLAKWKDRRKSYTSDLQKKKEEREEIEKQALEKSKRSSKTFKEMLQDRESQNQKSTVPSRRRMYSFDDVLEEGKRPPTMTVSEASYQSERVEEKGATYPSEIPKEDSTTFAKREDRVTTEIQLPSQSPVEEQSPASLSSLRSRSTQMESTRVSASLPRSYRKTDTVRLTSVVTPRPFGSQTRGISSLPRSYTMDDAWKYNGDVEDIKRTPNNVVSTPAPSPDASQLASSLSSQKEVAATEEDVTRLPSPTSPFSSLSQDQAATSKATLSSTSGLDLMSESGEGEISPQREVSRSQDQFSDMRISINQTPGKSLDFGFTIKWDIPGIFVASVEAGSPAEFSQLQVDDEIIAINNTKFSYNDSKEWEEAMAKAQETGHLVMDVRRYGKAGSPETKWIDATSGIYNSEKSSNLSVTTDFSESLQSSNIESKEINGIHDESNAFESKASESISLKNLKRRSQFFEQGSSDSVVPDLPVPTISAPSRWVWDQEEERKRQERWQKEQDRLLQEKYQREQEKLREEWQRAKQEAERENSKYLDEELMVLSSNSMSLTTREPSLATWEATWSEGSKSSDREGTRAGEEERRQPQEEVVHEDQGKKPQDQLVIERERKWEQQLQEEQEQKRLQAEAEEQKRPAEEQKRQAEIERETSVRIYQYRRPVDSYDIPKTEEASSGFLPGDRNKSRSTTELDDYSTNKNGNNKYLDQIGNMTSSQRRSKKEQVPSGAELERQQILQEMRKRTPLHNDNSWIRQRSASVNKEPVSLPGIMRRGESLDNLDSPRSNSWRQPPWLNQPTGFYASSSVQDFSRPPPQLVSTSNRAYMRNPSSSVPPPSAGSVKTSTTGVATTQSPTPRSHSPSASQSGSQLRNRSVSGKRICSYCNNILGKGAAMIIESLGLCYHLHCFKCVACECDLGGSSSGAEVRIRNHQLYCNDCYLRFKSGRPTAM

Row | Substance | solubility change mitosis (log2) [1] | melting temperature ([2]; cell cycle stage: G1/S) | melting temperature ([2]; cell cycle stage: mitosis) | solubility in G1/S (log2) [3] | thermal stability score [4, 5] | thermal stability score ([4]; cell cycle stage: mitosis)
1 | MERHQPRLHHPAQGSAAGTPYPSSASLRGCRESKMPRRKGPQHPPPPSGPEEPGEKRPKFHLNIRTLTDDMLDKFASIRIPGSKKERPPLPNLKTAFASSDCSAAPLEMMENFPKPLSENELLELFEKMMEDMNLNEDKKAPLREKDFSIKKEMVMQYINTASKTGSLKRSRQISPQEFIHELKMGSADERLVTCLESLRVSLTSNPVSWVESFGHEGLGLLLDILEKLISGKIQEKVVKKNQHKVIQCLKALMNTQYGLERIMSEERSLSLLAKAVDPRHPNMMTDVVKLLSAVCIVGEESILEEVLEALTSAGEEKKIDRFFCIVEGLRHNSVQLQVACMQLINALVTSPDDLDFRLHIRNEFMRCGLKEILPNLKCIKNDGLDIQLKVFDEHKEEDLFELSHRLEDIRAELDEAYDVYNMVWSTVKETRAEGYFISILQHLLLIRNDYFIRQQYFKLIDECVSQIVLHRDGMDPDFTYRKRLDLDLTQFVDICIDQAKLEEFEEKASELYKKFEKEFTDHQETQAELQKKEAKINELQAELQAFKSQFGALPADCNIPLPPSKEGGTGHSALPPPPPLPSGGGVPPPPPPPPPPPLPGMRMPFSGPVPPPPPLGFLGGQNSPPLPILPFGLKPKKEFKPEISMRRLNWLKIRPHEMTENCFWIKVNENKYENVDLLCKLENTFCCQQKERREEEDIEEKKSIKKKIKELKFLDSKIAQNLSIFLSSFRVPYEEIRMMILEVDETRLAESMIQNLIKHLPDQEQLNSLSQFKSEYSNLCEPEQFVVVMSNVKRLRPRLSAILFKLQFEEQVNNIKPDIMAVSTACEEIKKSKSFSKLLELVLLMGNYMNAGSRNAQTFGFNLSSLCKLKDTKSADQKTTLLHFLVEICEEKYPDILNFVDDLEPLDKASKVSVETLEKNLRQMGRQLQQLEKELETFPPPEDLHDKFVTKMSRFVISAKEQYETLSKLHENMEKLYQSIIGYYAIDVKKVSVEDFLTDLNNFRTTFMQAIKENIKKREAEEKEKRVRIAKELAERERLERQQKKKRLLEMKTEGDETGVMDNLLEALQSGAAFRDRRKRTPMPKDVRQSLSPMSQRPVLKVCNHENQKVQLTEGSRSHYNINCNSTRTPVAKELNYNLDTHTSTGRIKAAEKKEACNVESNRKKETELLGSFSKNESVPEVEALLARLRAL [DIAPH3] | -0.183 | 46.8 °C | 46.4 °C | 0.186 | 1.77 | 3.55
2 | MANVPWAEVCEKFQAALALSRVELHKNPEKEPYKSKYSARALLEEVKALLGPAPEDEDERPEAEDGPGAGDHALGLPAEVVEPEGPVAQRAVRLAVIEFHLGVNHIDTEELSAGEEHLVKCLRLLRRYRLSHDCISLCIQAQNNLGILWSEREEIETAQAYLESSEALYNQYMKEVGSPPLDPTERFLPEEEKLTEQERSKRFEKVYTHNLYYLAQVYQHLEMFEKAAHYCHSTLKRQLEHNAYHPIEWAINAATLSQFYINKLCFMEARHCLSAANVIFGQTGKISATEDTPEAEGEVPELYHQRKGEIARCWIKYCLTLMQNAQLSMQDNIGELDLDKQSELRALRKKELDEEESIRKKAVQFGTGELCDAISAVEEKVSYLRPLDFEEARELFLLGQHYVFEAKEFFQIDGYVTDHIEVVQDHSALFKVLAFFETDMERRCKMHKRRIAMLEPLTVDLNPQYYLLVNRQIQFEIAHAYYDMMDLKVAIADRLRDPDSHIVKKINNLNKSALKYYQLFLDSLRDPNKVFPEHIGEDVLRPAMLAKFRVARLYGKIITADPKKELENLATSLEHYKFIVDYCEKHPEAAQEIEVELELSKEMVSLLPTKMERFRTKMALT [KIF1BP] | -0.161 | 49 °C | 49 °C | 0.141 | 0.769 | 2.03
3 | MWRVCARRAQNVAPWAGLEARWTALQEVPGTPRVTSRSGPAPARRNSVTTGYGGVRALCGWTPSSGATPRNRLLLQLLGSPGRRYYSLPPHQKVPLPSLSPTMQAGTIARWEKKEGDKINEGDLIAEVETDKATVGFESLEECYMAKILVAEGTRDVPIGAIICITVGKPEDIEAFKNYTLDSSAAPTPQAAPAPTPAATASPPTPSAQAPGSSYPPHMQVLLPALSPTMTMGTVQRWEKKVGEKLSEGDLLAEIETDKATIGFEVQEEGYLAKILVPEGTRDVPLGTPLCIIVEKEADISAFADYRPTEVTDLKPQVPPPTPPPVAAVPPTPQPLAPTPSAPCPATPAGPKGRVFVSPLAKKLAVEKGIDLTQVKGTGPDGRITKKDIDSFVPSKVAPAPAAVVPPTGPGMAPVPTGVFTDIPISNIRRVIAQRLMQSKQTIPHYYLSIDVNMGEVLLVRKELNKILEGRSKISVNDFIIKASALACLKVPEANSSWMDTVIRQNHVVDVSVAVSTPAGLITPIVFNAHIKGVETIANDVVSLATKAREGKLQPHEFQGGTFTISNLGMFGIKNFSAIINPPQACILAIGASEDKLVPADNEKGFDVASMMSVTLSCDHRVVDGAVGAQWLAEFRKYLEKPITMLL [DLAT] | -0.12 | 54 °C | 52.3 °C | 0.263 | -1.61 | -3.92
4 | MSWMFKRDPVWKYLQTVQYGVHGNFPRLSYPTFFPRFEFQDVIPPDDFLTSDEEVDSVLFGSLRGHVVGLRYYTGVVNNNEMVALQRDPNNPYDKNAIKVNNVNGNQVGHLKKELAGALAYIMDNKLAQIEGVVPFGANNAFTMPLHMTFWGKEENRKAVSDQLKKHGFKLGPAPKTLGFNLESGWGSGRAGPSYSMPVHAAVQMTTEQLKTEFDKLFEDLKEDDKTHEMEPAEAIETPLLPHQKQALAWMVSRENSKELPPFWEQRNDLYYNTITNFSEKDRPENVHGGILADDMGLGKTLTAIAVILTNFHDGRPLPIERVKKNLLKKEYNVNDDSMKLGGNNTSEKADGLSKDASRCSEQPSISDIKEKSKFRMSELSSSRPKRRKTAVQYIESSDSEEIETSELPQKMKGKLKNVQSETKGRAKAGSSKVIEDVAFACALTSSVPTTKKKMLKKGACAVEGSKKTDVEERPRTTLIICPLSVLSNWIDQFGQHIKSDVHLNFYVYYGPDRIREPALLSKQDIVLTTYNILTHDYGTKGDSPLHSIRWLRVILDEGHAIRNPNAQQTKAVLDLESERRWVLTGTPIQNSLKDLWSLLSFLKLKPFIDREWWHRTIQRPVTMGDEGGLRRLQSLIKNITLRRTKTSKIKGKPVLELPERKVFIQHITLSDEERKIYQSVKNEGRATIGRYFNEGTVLAHYADVLGLLLRLRQICCHTYLLTNAVSSNGPSGNDTPEELRKKLIRKMKLILSSGSDEECAICLDSLTVPVITHCAHVFCKPCICQVIQNEQPHAKCPLCRNDIHEDNLLECPPEELARDSEKKSDMEWTSSSKINALMHALTDLRKKNPNIKSLVVSQFTTFLSLIEIPLKASGFVFTRLDGSMAQKKRVESIQCFQNTEAGSPTIMLLSLKAGGVGLNLSAASRVFLMDPAWNPAAEDQCFDRCHRLGQKQEVIITKFIVKDSVEENMLKIQNKKRELAAGAFGTKKPNADEMKQAKINEIRTLIDL [HLTF] | -0.0719 | 48.9 °C | 50.2 °C | -0.124 | 2.36 | 4.68
5 | MASILDEYENSLSRSAVLQPGCPSVGIPHSGYVNAQLEKEVPIFTKQRIDFTPSERITSLVVSSNQLCMSLGKDTLLRIDLGKANEPNHVELGRKDDAKVHKMFLDHTGSHLLIALSSTEVLYVNRNGQKVRPLARWKGQLVESVGWNKALGTESSTGPILVGTAQGHIFEAELSASEGGLFGPAPDLYFRPLYVLNEEGGPAPVCSLEAERGPDGRSFVIATTRQRLFQFIGRAAEGAEAQGFSGLFAAYTDHPPPFREFPSNLGYSELAFYTPKLRSAPRAFAWMMGDGVLYGALDCGRPDSLLSEERVWEYPEGVGPGASPPLAIVLTQFHFLLLLADRVEAVCTLTGQVVLRDHFLEKFGPLKHMVKDSSTGQLWAYTERAVFRYHVQREARDVWRTYLDMNRFDLAKEYCRERPDCLDTVLAREADFCFRQRRYLESARCYALTQSYFEEIALKFLEARQEEALAEFLQRKLASLKPAERTQATLLTTWLTELYLSRLGALQGDPEALTLYRETKECFRTFLSSPRHKEWLFASRASIHELLASHGDTEHMVYFAVIMQDYERVVAYHCQHEAYEEALAVLARHRDPQLFYKFSPILIRHIPRQLVDAWIEMGSRLDARQLIPALVNYSQGGEVQQVSQAIRYMEFCVNVLGETEQAIHNYLLSLYARGRPDSLLAYLEQAGASPHRVHYDLKYALRLCAEHGHHRACVHVYKVLELYEEAVDLALQVDVDLAKQCADLPEEDEELRKKLWLKIARHVVQEEEDVQTAMACLASCPLLKIEDVLPFFPDFVTIDHFKEAICSSLKAYNHHIQELQREMEEATASAQRIRRDLQELRGRYGTVEPQDKCATCDFPLLNRPFYLFLCGHMFHADCLLQAVRPGLPAYKQARLEELQRKLGAAPPPAKGSARAKEAEGGAATAGPSREQLKADLDELVAAECVYCGELMIRSIDRPFIDPQRYEEEQLSWL [VPS18] | -0.0584 | 50.1 °C | 49.5 °C | -0.115 | 0.54 | 1.02
6 | MASRGRRPEHGGPPELFYDETEARKYVRNSRMIDIQTRMAGRALELLYLPENKPCYLLDIGCGTGLSGSYLSDEGHYWVGLDISPAMLDEAVDREIEGDLLLGDMGQGIPFKPGTFDGCISISAVQWLCNANKKSENPAKRLYCFFASLFSVLVRGSRAVLQLYPENSEQLELITTQATKAGFSGGMVVDYPNSAKAKKFYLCLFSGPSTFIPEGLSENQDEVEPRESVFTNERFPLRMSRRGMVRKSRAWVLEKKERHRRQGREVRPDTQYTGRKRKPRF [WBSCR22] | 0.0973 | 52.9 °C | 52.9 °C | -0.361 | 1.09 | 0.578
7 | MSSNCTSTTAVAVAPLSASKTKTKKKHFVCQKVKLFRASEPILSVLMWGVNHTINELSNVPVPVMLMPDDFKAYSKIKVDNHLFNKENLPSRFKFKEYCPMVFRNLRERFGIDDQDYQNSVTRSAPINSDSQGRCGTRFLTTYDRRFVIKTVSSEDVAEMHNILKKYHQFIVECHGNTLLPQFLGMYRLTVDGVETYMVVTRNVFSHRLTVHRKYDLKGSTVAREASDKEKAKDLPTFKDNDFLNEGQKLHVGEESKKNFLEKLKRDVEFLAQLKIMDYSLLVGIHDVDRAEQEEMEVEERAEDEECENDGVGGNLLCSYGTPPDSPGNLLSFPRFFGPGEFDPSVDVYAMKSHESSPKKEVYFMAIIDILTPYDTKKKAAHAAKTVKHGAGAEISTVNPEQYSKRFNEFMSNILT [PIP4K2B] | -0.163 | 50.1 °C | 49 °C | 0.335 | 0.758 | -0.395
8 | MTEADVNPKAYPLADAHLTKKLLDLVQQSCNYKQLRKGANEATKTLNRGISEFIVMAADAEPLEIILHLPLLCEDKNVPYVFVRSKQALGRACGVSRPVIACSVTIKEGSQLKQQIQSIQQSIERLLV [SNU13] | 1.04 | 54.6 °C | 53 °C | -0.625 | -3.84 | -7.97
9 | MPSRKFADGEVVRGRWPGSSLYYEVEILSHDSTSQLYTVKYKDGTELELKENDIKPLTSFRQRKGGSTSSSPSRRRGSRSRSRSRSPGRPPKSARRSASASHQADIKEARREVEVKLTPLILKPFGNSISRYNGEPEHIERNDAPHKNTQEKFSLSQESSYIATQYSLRPRREEVKLKEIDSKEEKYVAKELAVRTFEVTPIRAKDLEFGGVPGVFLIMFGLPVFLFLLLLMCKQKDPSLLNFPPPLPALYELWETRVFGVYLLWFLIQVLFYLLPIGKVVEGTPLIDGRRLKYRLNGFYAFILTSAVIGTSLFQGVEFHYVYSHFLQFALAATVFCVVLSVYLYMRSLKAPRNDLSPASSGNAVYDFFIGRELNPRIGTFDLKYFCELRPGLIGWVVINLVMLLAEMKIQDRAVPSLAMILVNSFQLLYVVDALWNEEALLTTMDIIHDGFGFMLAFGDLVWVPFIYSFQAFYLVSHPNEVSWPMASLIIVLKLCGYVIFRGANSQKNAFRKNPSDPKLAHLKTIHTSTGKNLLVSGWWGFVRHPNYLGDLIMALAWSLPCGFNHILPYFYIIYFTMLLVHREARDEYHCKKKYGVAWEKYCQRVPYRIFPYIY [LBR] | -0.0634 | 53.1 °C | 52.5 °C | -0.228 | -0.47 | -1.19
10 | MSI2 | 0.0111 | 51 °C | 50.8 °C | 0.473 | -0.0604 | -1.64
11 | LMO7 | 0.694 | 51 °C | 51.1 °C | -1.14 | 3.45 | 3.47
